This assay relates to target antigen-expressing cell line. Kind of assay: Jurkat NFAT-GFP assay, coculture with target cell lines expressing the respective target antigen (summary Table 10A). Type of assay: cell-based, human. On the set-up: key: The signs +/−, +, 2+ etc. after the name of the cell lines indicate the relative degree of positivity on the Jurkat-NFAT-GFP assay as measured by the % GFP positive cells; +: relative degree of positivity on the Jurkat-NFAT-GFP assay as measured by the % GFP positive cells; 2+: relative degree of positivity on the Jurkat-NFAT-GFP assay as measured by the % GFP positive cells. The procedure, abridged:
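Read-out: % GFP+ cells by FACS. SIR-transduced, puromycin-selected Jurkat NFAT-GFP (IL-2 promoter reporter) cocultured ~4–18 h with target line, E:T ~1:2; parental cells as control; graded +/−, +, 2+ relative to parental.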

B1: 012517-P12 (protein)
chain: MALPVTALLLPLALLLHAARPLEGKPIPNPLLGLDSTGSGEDLKNVFPPEVAVFEPSKAEIAHTQKATLVCLATGFYPDHVELSWWVNGKEVHSGVCTDPQPLKEQPALNDSRYCLSSRLRVSATFWQNPRNHFRCQVQFYGLSENDEWTQDRAKPVTQIVSAEAWGRADCGITSASYHQGVLSATILYEILLGKATLYAVLVSALVLMAMVKRKDSRGRAKRSGSGATNFSLLKQAGDVEENPGPTSMALPVTALLLPLALLLHAARPDIVMTQSHKFMSTSVGDRVSITCKASQDVSTAVAWYQQKPGQSPKLLIYSASYRYTGVPDRFTGSGSGTDFTFTISSVQAEDLAVYYCQQHYSTPPYTFGGGTKLEIKGGGGSGGGGSGGGGSQVQLQQSGPELVKPGASVKISCKASGYAFSSSWMNWVKQRPGQGLEWIGRIYPGDGDTKYNGKFKGKATLTADKSSSTAYMQLSSLTSVDSAVYFCARSTMIATGAMDYWGQGTSVTVSSTREQKLISEEDGSGIQNPDPAVYQLRDSKSSDKSVCLFTDFDSQTNVSQSKDSDVYITDKCVLDMRSMDFKSNSAVAWSNKSDFACANAFNNSIIPEDTFFPSSDVPCDVKLVEKSFETDTNLNFQNLSVIGFRILLLKVAGFNLLMTLRLWSSRAKRSGSGVKQTLNFDLLKLAGDVESNPGPSRGHMTEYKPTVRLATRDDVPRAVRTLAAAFADYPATRHTVDPDRHIERVTELQELFLTRVGLDIGKVWVADDGAAVAVWTTPESVEAGAVFAEIGPRMAELSGSRLAAQQQMEGLLAPHRPKEPAWFLATVGVSPDHQGKGLGSAVVLPGVEAAERAGVPAFLETSAPRNLPFYERLGFTVTADVEVPEGPRTWCMTRKPGA
As for B1, the “NFAT-GFP ASSAY Positive Cell lines” value is recorded as “(+/−)” (coculture with L363 cells) and “U266 (+/−), L363” (coculture with U266 cells).

B2: 110116-L01 (protein)
chain: MALPVTALLLPLALLLHAARPLEQKLISEEDLGSGDRPDPAVYQLRDSKSSDKSVCLFTDFDSQTNVSQSKDSDVYITDKCVLDMRSMDFKSNSAVAWSNKSDFACANAFNNSIIPEDTFFPSPESSCDVKLVEKSFETDTNLNFQNLSVIGFRILLLKVAGFNLLMTLRLWSSSSRAKRSGSGVKQTLNFDLLKLAGDVESNPGPTSMALPVTALLLPLALLLHAARPDIVMTQSQKSMSTSVGDRVSITCKASQDVITGVAWYQQKPGQSPKLLIYSASYRYTGVPDRFTGSGSGTDFTFTISNVQAEDLAVYYCQQHYSTPLTFGAGTKLELKGGGGSGGGGSGGGGSQVQLQQPGAELVRPGASVKLSCKASGYSFTTYWMNWVKQRPGQGLEWIGMIHPSDSETRLNQKFKDKATLTVDKSSSTAYMQLSSPTSEDSAVYYCARSTMIATRAMDYWGQGTSVTVSSTRGKPIPNPLLGLDSTGSGEDLKNVFPPEVAVFEPSEAEISHTQKATLVCLATGFYPDHVELSWWVNGKEVHSGVCTDPQPLKEQPALNDSRYCLSSRLRVSATFWQNPRNHFRCQVQFYGLSENDEWTQDRAKPVTQIVSAEAWGRADCGFTSESYQQGVLSATILYEILLGKATLYAVLVSALVLMAMVKRKDSRGRAKRSGSGATNFSLLKQAGDVEENPGPSRGHMTEYKPTVRLATRDDVPRAVRTLAAAFADYPATRHTVDPDRHIERVTELQELFLTRVGLDIGKVWVADDGAAVAVWTTPESVEAGAVFAEIGPRMAELSGSRLAAQQQMEGLLAPHRPKEPAWFLATVGVSPDHQGKGLGSAVVLPGVEAAERAGVPAFLETSAPRNLPFYERLGFTVTADVEVPEGPRTWCMTRKPGA
modifications: Synthetic Immune Receptor (SIR)
Turning to B2, the “NFAT-GFP ASSAY Positive Cell lines” value is, setting by setting: (coculture with L363 cells) “U266 (+), L363 (+)”; (coculture with U266 cells) “U266 (+), L363 (+)”.

B3: 091216-L03 (protein)
chain: MALPVTALLLPLALLLHAARPLEGKPIPNPLLGLDSTGSGEDLKNVFPPEVAVFEPSKAEIAHTQKATLVCLATGFYPDHVELSWWVNGKEVHSGVCTDPQPLKEQPALNDSRYCLSSRLRVSATFWQNPRNHFRCQVQFYGLSENDEWTQDRAKPVTQIVSAEAWGRADCGITSASYHQGVLSATILYEILLGKATLYAVLVSALVLMAMVKRKDSRGRAKRSGSGATNFSLLKQAGDVEENPGPTSTMALPVTALLLPLALLLHAARPDIQMTQSPSSLSASVGDRVTITCKASQDVGIAVAWYQQKPGKVPKLLIYWASTRHTGVPDRFSGSGSGTDFTLTISSLQPEDVATYYCQQYSSYPYTFGQGTKVEIKGGGGSGGGGSGGGGSEVQLVESGGGLVQPGGSLRLSCAASGFDFSRYWMSWVRQAPGKGLEWIGEINPDSSTINYAPSLKDKFIISRDNAKNSLYLQMNSLRAEDTAVYYCARPDGNYWYFDVWGQGTLVTVSSTREQKLISEEDGSGIQNPDPAVYQLRDSKSSDKSVCLFTDFDSQTNVSQSKDSDVYITDKCVLDMRSMDFKSNSAVAWSNKSDFACANAFNNSIIPEDTFFPSSDVPCDVKLVEKSFETDTNLNFQNLSVIGFRILLLKVAGFNLLMTLRLWSSRAKRSGSGVKQTLNFDLLKLAGDVESNPGPSRGHMTEYKPTVRLATRDDVPRAVRTLAAAFADYPATRHTVDPDRHIERVTELQELFLTRVGLDIGKVWVADDGAAVAVWTTPESVEAGAVFAEIGPRMAELSGSRLAAQQQMEGLLAPHRPKEPAWFLATVGVSPDHQGKGLGSAVVLPGVEAAERAGVPAFLETSAPRNLPFYERLGFTVTADVEVPEGPRTWCMTRKPGA
modifications: Synthetic Immune Receptor (SIR)
Take B3: the “NFAT-GFP ASSAY Positive Cell lines” value reads like this: (coculture with L363 cells) “U266 (+), L363 (+)”; (coculture with U266 cells) “U266 (+), L363 (+)”.

B4: 012517-A12 (protein)
chain: MALPVTALLLPLALLLHAARPLEGKPIPNPLLGLDSTGSGEDLKNVFPPEVAVFEPSKAEIAHTQKATLVCLATGFYPDHVELSWWVNGKEVHSGVCTDPQPLKEQPALNDSRYCLSSRLRVSATFWQNPRNHFRCQVQFYGLSENDEWTQDRAKPVTQIVSAEAWGRADCGITSASYHQGVLSATILYEILLGKATLYAVLVSALVLMAMVKRKDSRGRAKRSGSGATNFSLLKQAGDVEENPGPTSMALPVTALLLPLALLLHAARPDIQMTQSPSSLSASVGDRVTITCKASQDVSTAVAWYQQKPGKAPKLLIYSASYRYTGVPDRFTGSGSGTDFTLTISSLQPEDFATYYCQQHYSTPPYTFGGGTKVEIKRGGGGSGGGGSGGGGSQVQLVQSGAEVKKPGASVKVSCKASGYAFSSSWMNWVRQAPGQGLEWIGRIYPGDGDTKYNGKFKGKATLTADKSTSTAYMELSSLRSEDTAVYYCARSTMIATGAMDYWGQGTLVTVSSTREQKLISEEDGSGIQNPDPAVYQLRDSKSSDKSVCLFTDFDSQTNVSQSKDSDVYITDKCVLDMRSMDFKSNSAVAWSNKSDFACANAFNNSIIPEDTFFPSSDVPCDVKLVEKSFETDTNLNFQNLSVIGFRILLLKVAGFNLLMTLRLWSSRAKRSGSGVKQTLNFDLLKLAGDVESNPGPSRGHMTEYKPTVRLATRDDVPRAVRTLAAAFADYPATRHTVDPDRHIERVTELQELFLTRVGLDIGKVWVADDGAAVAVWTTPESVEAGAVFAEIGPRMAELSGSRLAAQQQMEGLLAPHRPKEPAWFLATVGVSPDHQGKGLGSAVVLPGVEAAERAGVPAFLETSAPRNLPFYERLGFTVTADVEVPEGPRTWCMTRKPGA
For B4, the “NFAT-GFP ASSAY Positive Cell lines” value by setting is: (coculture with L363 cells) “(+)”; (coculture with U266 cells) “U266 (+/−), L363”.

B5: 012517-B12 (protein)
chain: MALPVTALLLPLALLLHAARPLEGKPIPNPLLGLDSTGSGEDLKNVFPPEVAVFEPSKAEIAHTQKATLVCLATGFYPDHVELSWWVNGKEVHSGVCTDPQPLKEQPALNDSRYCLSSRLRVSATFWQNPRNHFRCQVQFYGLSENDEWTQDRAKPVTQIVSAEAWGRADCGITSASYHQGVLSATILYEILLGKATLYAVLVSALVLMAMVKRKDSRGRAKRSGSGATNFSLLKQAGDVEENPGPTSMALPVTALLLPLALLLHAARPDVVMTQTPLSLSVTPGQPASISCRSSQSLVHNNGNTYLHWYLQKPGQSPQLLIYKVSNRFSGVPDRFSGSGSGTDFTLKISRVEAEDVGVYFCSQSTHVPPYTFGGGTKVEIKGGGGSGGGGSGGGGSEVQLVESGGGLVQPGGSLRLSCAASGFTFSDYYMAWVRQAPGKGLEWVAEINYDGSSTYYVDSVKGRFTISRDNAKNSLYLQMNSLRAEDTAVYYCARDRGFYFDYWGQGTTVTVSSTREQKLISEEDGSGIQNPDPAVYQLRDSKSSDKSVCLFTDFDSQTNVSQSKDSDVYITDKCVLDMRSMDFKSNSAVAWSNKSDFACANAFNNSIIPEDTFFPSSDVPCDVKLVEKSFETDTNLNFQNLSVIGFRILLLKVAGFNLLMTLRLWSSRAKRSGSGVKQTLNFDLLKLAGDVESNPGPSRGHMTEYKPTVRLATRDDVPRAVRTLAAAFADYPATRHTVDPDRHIERVTELQELFLTRVGLDIGKVWVADDGAAVAVWTTPESVEAGAVFAEIGPRMAELSGSRLAAQQQMEGLLAPHRPKEPAWFLATVGVSPDHQGKGLGSAVVLPGVEAAERAGVPAFLETSAPRNLPFYERLGFTVTADVEVPEGPRTWCMTRKPGA
Consider B5, for which the “NFAT-GFP ASSAY Positive Cell lines” value is on record as “+” (coculture with L363 cells) and 2+ (coculture with U266 cells).

B6: 090116-L01 (protein)
chain: MALPVTALLLPLALLLHAARPLEGKPIPNPLLGLDSTGSGEDLKNVFPPEVAVFEPSKAEIAHTQKATLVCLATGFYPDHVELSWWVNGKEVHSGVCTDPQPLKEQPALNDSRYCLSSRLRVSATFWQNPRNHFRCQVQFYGLSENDEWTQDRAKPVTQIVSAEAWGRADCGITSASYHQGVLSATILYEILLGKATLYAVLVSALVLMAMVKRKDSRGRAKRSGSGATNFSLLKQAGDVEENPGPTSMALPVTALLLPLALLLHAARPDIVMTQSQKSMSTSVGDRVSITCKASQDVITGVAWYQQKPGQSPKLLIYSASYRYTGVPDRFTGSGSGTDFTFTISNVQAEDLAVYYCQQHYSTPLTFGAGTKLELKGGGGSGGGGSGGGGSQVQLQQPGAELVRPGASVKLSCKASGYSFTTYWMNWVKQRPGQGLEWIGMIHPSDSETRLNQKFKDKATLTVDKSSSTAYMQLSSPTSEDSAVYYCARSTMIATRAMDYWGQGTSVTVSSTREQKLISEEDGSGIQNPDPAVYQLRDSKSSDKSVCLFTDFDSQTNVSQSKDSDVYITDKCVLDMRSMDFKSNSAVAWSNKSDFACANAFNNSIIPEDTFFPSSDVPCDVKLVEKSFETDTNLNFQNLSVIGFRILLLKVAGFNLLMTLRLWSSRAKRSGSGVKQTLNFDLLKLAGDVESNPGPSRGHMTEYKPTVRLATRDDVPRAVRTLAAAFADYPATRHTVDPDRHIERVTELQELFLTRVGLDIGKVWVADDGAAVAVWTTPESVEAGAVFAEIGPRMAELSGSRLAAQQQMEGLLAPHRPKEPAWFLATVGVSPDHQGKGLGSAVVLPGVEAAERAGVPAFLETSAPRNLPFYERLGFTVTADVEVPEGPRTWCMTRKPGA
modifications: Synthetic Immune Receptor (SIR)
B6: the “NFAT-GFP ASSAY Positive Cell lines” value is given as “(+)” (coculture with L363 cells) and “U266 (+/−), L363” (coculture with U266 cells).

For the origin of these results see patent US12269859B2, “Synthetic immune receptors and methods of use thereof” (Angeles Therapeutics, Inc., priority 2016, dated 2025).
